Test results: the supplement of paper PMC9170038

Test system: MS2 coat protein
Test: apparent KD of MS2 coat protein; designed switch direction (-1 OFF switch, 1 ON switch): -1; higher = weaker reporter binding
Summary of the method: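 Designed RNA switches with common flanks were transcribed on Illumina chips by stalled E. coli RNA polymerase and titrated with SNAP-549-labelled MS2 coat protein, from 0.7 or 1.5 nM doubling to 3 µM, in Tris-HCl pH 7.5 buffer with KCl, MgCl2, BSA, DTT, tRNA and Tween-20. Steps lasted 0.8–1.5 h (lowest) to 10–20 min (highest). Titrations ran without input, with 200 uM small-molecule ligand, or with an oligonucleotide input. Normalised cluster fluorescence was curve-fitted, and apparent KD is the per-design median over clusters.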

[1] = input ligand: microRNA oligo, concentration not stated
[2] = Eterna round: R95, input ligand: microRNA oligo, concentration not stated
[3] = Eterna round: R95, input ligand: FMN 200 uM
[4] = Eterna round: R95, input ligand: none

| Sequence | apparent KD of MS2 coat protein (input ligand: FMN 200 uM) [nM] | apparent KD of MS2 coat protein (input ligand: none) [nM] | apparent KD of MS2 coat protein [2] [nM] | further results |
| --- | --- | --- | --- | --- |
| GGAGGAGAGGUUAGGAUAUCCUCCUCGAAAGAGGAGGAGAAGGAACAUGAGGAUCACCCAUGUAAGGAAGGAGG [AK-MS2ROC-r4-Bmoexclusion4-10] (Eterna round: R97, puzzle: Brourd's mod of Exclusion 4) | 27.1 | 37 |  |  |
| GGAUAAAAGGCAGGAUAUACGUAUCACUAACGAGUAGAAGGGCCACAUGAGGAUCACCCAUGUGAGUUCUCAAUAAGAAACACG [Prohibition 63 - Jieux - Exclusion NG 1] (Eterna round: R96, puzzle: Exclusion NG 1) | 15.3 | 14.2 |  | apparent KD of MS2 coat protein [1]: 10.7 nM |
| GGAUAGUGAGGAUAUCGAUGUUAGGAGGAUGAGGUAGGAUGCGAGAAGGCACAUGAGGAUCACCCAUGUAUGGU [JR_Exclu4_Sub070] (puzzle: Exclusion 4) |  |  | 38.4 |  |
| GGAUAUAAGUCAGGAUAUGAGCGCAACUGACGAUCAGAAGGGACACAUGAGGAUCACCCAUGUGAUCUAUCAAUAUUAUACAUG [Prohibition 93 - Jieux - Exclusion NG 1] (Eterna round: R96, puzzle: Exclusion NG 1) | 29.1 | 22.4 |  | apparent KD of MS2 coat protein [1]: 19 nM |
| GGAUCGAGAGUGAGGAUAUGCUGGUCCUUGGAUCAGCAGAAGGCACAUGAGGAUCACCCAUGUGAUUCCGAUCC [Mat - Exclusion 4 - Eli Mod - D39] (Eterna round: R97, puzzle: Brourd's mod of Exclusion 4) | 399 | 40.6 |  |  |
| GGAUCGAGUGUGAGGAUAUGCAGGUCCUUGGAUCUGCAGAAGGCACAUGAGGAUCACCCAUGUGGAGACGGUCC [Mat - Exclusion 4 - JL Mod - D75] (puzzle: Brourd's mod of Exclusion 4) |  |  | 64.2 | apparent KD of MS2 coat protein [3]: 406 nM; apparent KD of MS2 coat protein [4]: 110 nM |
| GGAUCGAGUGUGAGGAUAUGCUGGUCCUUGGAUCAGCAGAAGGCACAUGAGGAUCACCCAUGUGAAAACGGUCC [Mat - Exclusion 4 - JL Mod - D70] (puzzle: Brourd's mod of Exclusion 4) |  |  | 22.7 |  |
| GGAUCGAUAGUGAGGAUAUACCACUGGAUACAGUGGUAGAAGGCACAUGAGGAUCACCCAUGUCCUAACGAUCC [Fiskers BMX 4 - 49] (puzzle: Brourd's mod of Exclusion 4) |  |  | 17.6 |  |
| GGCACACAUGAGGAUCACCCAUGUGAGGAUAUGCUGCGAUCGUCGUAAGACGAUAGCAGUAGAAGGCACAUGCC [Mat - Exclusion 1 - Eli Mod - D8] (Eterna round: R97, puzzle: Exclusion 1) | 22.9 | 20.5 |  |  |
| GGCACACAUGAGGAUCACCCAUGUGAGGAUAUGGUGCGAUCGUCGAUAGACGAUAGCACCAGAAGGCACAUGCC [Mat - Exclusion 1 - Eli Mod - D5] (Eterna round: R97, puzzle: Exclusion 1) | 33.6 | 15.4 |  |  |
| GGCAUGCAAGGAUAUACUUACGGUGGUGUUCGAAGCUUUCUACUUGAGGAUCACCCAAGUAGAAGGUGCAUGCC [jl-ex2.4.74 ViennaUCT mod] (Eterna round: R97, puzzle: Exclusion 2) | 18.7 | 23.7 |  |  |
| GGCAUGUGAGGAUAUGUACCUGAGUGCUUUGCGCUCAGGAAACAGAAGGCACAUGAGGAUCACCCAUGUGAAAU [jl-ex4-4.48 ViennaUCT mod] (Eterna round: R97, puzzle: Exclusion 4) | 96.8 | 251 |  |  |
| GGCCUACGAGGAUAUCGCUAGCGGGACAUGAGGAUCACCCAUGUGUCGGACCGCGUCAUGCGAGAAGGUGUAAUGA [Ribeceve] (puzzle: Exclusion 5) |  |  | 14.9 |  |
| GGCGAAGUAGGAUAUACAUGAGGAUCACCCAUGUUACCUGAUGGCGUAGGUCUUCUAUGUAGAAGGGCUACGCC [jl-ex3-4.36 ViennaUCT mod] (Eterna round: R97, puzzle: Exclusion 3) | 16.9 | 16.9 |  |  |
| GGCUAGUCAGGAUAUACGAACAUGUCAAAAGACGUGAAGGGACAUGAGGAUCACCCAUGUAGAAGGGACUAGCC [salish99_ex2_r3_004] (Eterna round: R96, puzzle: Exclusion 2) | 181 | 27.5 |  | apparent KD of MS2 coat protein [1]: 21.9 nM |
| GGCUAGUCAGGAUAUACGAACAUGUCAAAAGACGUGAAGGGACAUGAGGAUCACCCAUGUAGAAGGGACUAGCC [salish99_ex2_r3_004] (puzzle: Exclusion 2) |  |  | 21.8 |  |
| GGCUAGUCAGGAUAUACGAACAUGUCAAAAGACGUGAAGGGACAUGAGGAUCACCCAUGUAGAAGGGACUAGCU [salish99_ex2_r3_003] (puzzle: Exclusion 2) |  |  | 27.9 |  |

| Sequence | apparent KD of MS2 coat protein (input ligand: FMN 200 uM) [nM] | apparent KD of MS2 coat protein (input ligand: none) [nM] | apparent KD of MS2 coat protein [2] [nM] | further results |
| --- | --- | --- | --- | --- |
| GGCUGCAAUGUAGGAUAUCUGCACGAUUAGUGCAGAGAAGGACAUGAGGAUCACCCAUGUAUAGUAGCUUCGGCUACAGCAGCC [ENG1-D1] (Eterna round: R96, puzzle: Exclusion NG 1) | 17.1 | 15.6 |  | apparent KD of MS2 coat protein [1]: 14.2 nM |
| GGCUUACAUGAGGAUCACCCAUGUCAGGAUAUAGAACGAUGGCGGAACGCCAUCGCCGCUAGAAGGGACCGGUG [Eternabot (Original) Solution 25] (Eterna round: R97, puzzle: Exclusion 1) | 142 | 78 |  |  |
| GGCUUGUAAGGAUAUGCGAAGGGAAGGAGAGGGACAGAGAAGCAGAAGGUACAUGAGGAUCACCCAUGUAAGGG [AK-MS2ROC-r4-exclusion4-7] (Eterna round: R97, puzzle: Exclusion 4) | 247 | 94.9 |  |  |
| GGGAUGUCAGGAUAUGAUUAGCACGGCGGUAGCCGCGUUACUUAGAAGGGACAUGAGGAUCACCCAUGUACCGA [EX4 B.6] (Eterna round: R97, puzzle: Exclusion 4) | 18.6 | 16.9 |  |  |
| GGGCCCGGAGGAUAUACAUGAGGAUCACCCAUGUAGGGCCCGGGUAUUCCCGGGCCCUGUAGAAGGUUGGGCCC [-44, -41.2 kcal, A 19%, 0,5c] (Eterna round: R97, puzzle: Exclusion 3) | 17.8 | 15.8 |  |  |
| GGGCCGGCCGGAGGAUAUGCGGCCCGGCCGGCCGGUGGGCCGGCCGGGACAUGAGGAUCACCCAUGUAGAAGGCCGGCCGGCCC [low energy, MS2 in another position, A 14%] (Eterna round: R96, puzzle: Exclusion NG 2) | 18.8 | 15.9 |  | apparent KD of MS2 coat protein [1]: 13.7 nM |
| GGGCGUGAAGGAUAUACAUGAGGAUCACCCAUGUGGGAGGAGAGUGGUGAGGAGGCUGGUAGAAGGUCAGGAUG [JR_Exclusion3_Sub007] (puzzle: Exclusion 3) |  |  | 42.6 |  |
| GGGUAACAUGAGGAUCACCCAUGUGAGGAUAUUCUAGGGAUGGAAGCUCGGCCGGCCAGGAGAAGGUACUAAAG [Janelle Amethyst 18 Mod 20 - Jieux - Exclusion 1] (Eterna round: R96, puzzle: Exclusion 1) | 62 | 48.2 |  | apparent KD of MS2 coat protein [1]: 29.6 nM |
| GGGUAAUUCGUGAGGAUAUCGCUAAGCACUUUGGCCGAGAAGGCACAUGAGGAUCACCCAUGUAAUACGGCACG [Eternabot (L1) Solution 92] (Eterna round: R97, puzzle: Brourd's mod of Exclusion 4) | 70.9 | 19.1 |  |  |
| GGGUAGUGAGGAUAUCGUUGUUAGGAGGAGUAGGUAGGAGGCGAGAAGGCACAUGAGGAUCACCCAUGUAUGAA [JR_Exclu4_Sub066] (Eterna round: R96, puzzle: Exclusion 4) | 34.9 | 32 |  | apparent KD of MS2 coat protein [1]: 26.2 nM |
| GGGUAGUGAGGAUAUCGUUGUUAGGAGGAGUAGGUAGGAGGCGAGAAGGCACAUGAGGAUCACCCAUGUAUGAA [JR_Exclu4_Sub066] (puzzle: Exclusion 4) |  |  | 23.5 |  |
| GGGUGCAGGCUGAGGUCCUACAUGAGGAUCACCCAUGUGGUCCGGUGGCGUGGGUCGCCGGACUUGGCUCGUCUUGU [salish99_S_TOV1_R5_013] (Eterna round: R97, puzzle: Sensor, turn-off variant 1) | 39.2 | 45.8 |  |  |
| GGUACUAACACGAAAGUGUUAGUACAAUAAGCUUGUGAAACAUGAGGAUCACCCAUGUCCUCAUAAGCUCGUCUUAG [salish99_TOv2_r3_005] (puzzle: Sensor v3, turn-off variant 2) |  |  | 392 | apparent KD of MS2 coat protein [3]: 13.4 nM; apparent KD of MS2 coat protein [4]: 12.3 nM |
| GGUACUCAAAGAGUACCAAUACGAACAUGAGGAUCACCCAUGUAGGAUAUGCUACUCAAAGAGUAGCAGAAGGAUAUGAUCCCU [Far Half Aptamer v12] (Eterna round: R96, puzzle: Exclusion NG 3) | 211 | 126 |  | apparent KD of MS2 coat protein [1]: 99.6 nM |
| GGUAGAGAGCAGGAUAUCUUGGGUAAGUAUCGUAGAGAAGGGCUCACAUGAGGAUCACCCAUGUGGUCCUAGAU [JL Dibiri mod 04] (puzzle: Exclusion 6) |  |  | 11.8 |  |
| GGUAUACAUGAGGAUCACCCAUGUCAGGAUAUGUAUGCAUAUGCCGAAAGGCAUAUGCUCAGAAGGGACUAUAU [AK-MS2ROC-r4-exclusion1-4.0] (Eterna round: R97, puzzle: Exclusion 1) | 42.4 | 32 |  |  |
| GGUCAGAUGGUAGGAUAUCCAUAUCGAGUGACUCUUUCAUAACAUGAGGAUCACCCAUGUCGGUGGGAGAAGGGCCGUACGGCG [salish99_ExNG02_R04_016] (Eterna round: R96, puzzle: Exclusion NG 2) | 38.9 | 36.6 |  | apparent KD of MS2 coat protein [1]: 23.3 nM |
